Columns and labels:
[1] = in vivo; settings: C57BL/6, mouse, iv, total radioactivity, SUVmean of the liver
Description: Both normal control and B16-F10 tumorous mice were iv. administered with 6.8 ± 0.9 MBq [^68Ga]Ga-DOTAGA-LacN(NAP), [^68Ga]Ga-DOTAGA-LacN(NAP)-cRGDfK, or [^68Ga]Ga-DOTAGA-cRGDfK in 120 μL saline through the lateral tail vein.

[2] = in vivo; settings: C57BL/6, mouse, iv, total radioactivity
Description: (§1) After in vivo PET imaging (100 min post injection), control and B16-F10 tumor-bearing mice were euthanized with 5% isoflurane (Forane, AbbVie, Budapest, Hungary; OGYI-T-1414/01). For the assessment of the radiotracer uptake, the radioactivity concentration (%ID/g tissue) of the selected organs was measured with a calibrated gamma counter (Perkin-Elmer Packard Cobra, Waltham, MA, USA) (Supplementary Material Table S1).

[3] = system: subcutaneous B16-F10 tumors; settings: mouse, in vivo
Description: as §1

[4] = system: human galectin-3 CRD; settings: fold greater affinity than lactose; cited from earlier work
[5] = in vivo; design: species or system C57BL/6 mice; settings: C57BL/6, mouse, iv, total radioactivity
Excerpt: As part of the ex vivo biodistribution studies—after PET imaging—the sacrifice of the experimental animals occurred followed by the gamma counter-based measurement of the radioactivity of the organs and tissues (Figure 7).
Significance level between the [^68Ga]Ga-DOTAGA-LacN(NAP) and the two other investigated radiotracers: p ≤ 0.01 (*).

[6] = ex vivo biodistribution: bone (femur)
[7] = ex vivo biodistribution: kidney
[8] = ex vivo biodistribution: large intestine
[9] = ex vivo biodistribution: muscle
[10] = ex vivo biodistribution: pancreas
[11] = ex vivo biodistribution: salivary glands
[12] = ex vivo biodistribution: small intestine
[13] = ex vivo biodistribution: spleen
[14] = uptake in subcutaneous B16-F10 tumors

| SMILES | SUV at 80 min [1] | tissue uptake at 100 min ([2]; ex vivo biodistribution: blood) | tissue uptake at 100 min [2, 6] | tissue uptake at 100 min ([2]; ex vivo biodistribution: brain) | tissue uptake at 100 min ([2]; ex vivo biodistribution: fat) | tissue uptake at 100 min ([2]; ex vivo biodistribution: heart) | tissue uptake at 100 min [2, 7] | tissue uptake at 100 min [2, 8] | tissue uptake at 100 min ([2]; ex vivo biodistribution: liver) | tissue uptake at 100 min ([2]; ex vivo biodistribution: lungs) | tissue uptake at 100 min [2, 9] | tissue uptake at 100 min [2, 10] | tissue uptake at 100 min [2, 11] | tissue uptake at 100 min [2, 12] | tissue uptake at 100 min [2, 13] | tissue uptake at 100 min [2, 14] | B16-F10/Liver ratio (T/L) [3] | B16-F10/Muscle ratio (T/M) [3] | other results |
| --- | --- | --- | --- | --- | --- | --- | --- | --- | --- | --- | --- | --- | --- | --- | --- | --- | --- | --- | --- |
| N=C(N)NCCC[C@@H]1NC(=O)[C@H](CCCCNC(=S)Nc2ccc(CNC(=O)CCC(C(=O)O)N3CCN(CC(=O)O)CCN(CC(=O)O)CCN(CC(=O)O)CC3)cc2)NC(=O)[C@@H](Cc2ccccc2)NC(=O)[C@H](CC(=O)O)NC(=O)CNC1=O (stereo partly drawn) [[^68Ga]Ga-DOTAGA-cRGDfK, metal not drawn] | 0.59 ± 0.08 SUV | 0.37 ± 0.05 %ID/g | 0.26 ± 0.04 %ID/g | 0.03 ± 0.01 %ID/g | 0.19 ± 0.08 %ID/g | 0.26 ± 0.06 %ID/g | 2.43 ± 0.26 %ID/g | 0.55 ± 0.16 %ID/g | 1 ± 0.25 %ID/g | 0.66 ± 0.18 %ID/g | 0.1 ± 0.01 %ID/g | 0.18 ± 0.06 %ID/g | 0.54 ± 0.18 %ID/g | 0.78 ± 0.2 %ID/g | 0.8 ± 0.09 %ID/g | 0.35 ± 0.12 %ID/g | 0.35 ± 0.14 | 4.54 ± 1.24 | tissue uptake at 100 min ([2]; ex vivo biodistribution: gall bladder): 0.84 ± 0.29 %ID/g; tissue uptake at 100 min ([2]; ex vivo biodistribution: stomach): 0.69 ± 0.21 %ID/g |
| CC(=O)N[C@H]1C(O)O[C@H](CO)[C@@H](O[C@@H]2O[C@H](CO)[C@H](O)[C@H](O)[C@H]2O)[C@@H]1O (stereo partly drawn) [N-acetyl-lactosamine] |  |  |  |  |  |  |  |  |  |  |  |  |  |  |  |  |  |  | affinity for the CRD of galectin-3 compared to the lactose molecule [4]: 5 fold |
| N=C(N)NCCC[C@@H]1NC(=O)[C@H](CCCCNC(=O)CCOCCOCCOCCOCCNC(=O)CCC(=O)N2Cc3ccccc3-c3c(nnn3CCCO[C@@H]3O[C@H](CO)[C@@H](O[C@@H]4O[C@H](CO)[C@H](O)[C@H](OCc5ccc6ccccc6c5)[C@H]4O)[C@H](O)[C@H]3NC(=S)Nc3ccc(CNC(=O)CCC(C(=O)O)N4CCN(CC(=O)O)CCN(CC(=O)O)CCN(CC(=O)O)CC4)cc3)-c3ccccc32)NC(=O)[C@@H](Cc2ccccc2)NC(=O)[C@H](CC(=O)O)NC(=O)CNC1=O (stereo partly drawn) [[^68Ga]Ga-DOTAGA-LacN(NAP)-cRGDfK, metal not drawn] | 1.25 ± 0.18 SUV | 0.58 ± 0.14 %ID/g | 0.54 ± 0.21 %ID/g | 0.06 ± 0.01 %ID/g | 0.17 ± 0.13 %ID/g | 0.61 ± 0.17 %ID/g | 6.14 ± 1.14 %ID/g | 1.74 ± 0.7 %ID/g | 2.19 ± 0.73 %ID/g | 1.54 ± 0.62 %ID/g | 0.27 ± 0.07 %ID/g | 0.43 ± 0.12 %ID/g | 1.34 ± 0.5 %ID/g | 1.77 ± 0.96 %ID/g | 1.6 ± 1.17 %ID/g | 0.8 ± 0.23 %ID/g | 0.45 ± 0.11 | 3.43 ± 1.09 | tissue uptake at 100 min ([5]; accumulation in the gall bladder): 3.07 ± 2.1 %ID/g; tissue uptake at 100 min ([5]; accumulation in the intestines): ~1.7 %ID/g; tissue uptake at 100 min ([5]; accumulation in the stomach): 1.7 ± 0.71 %ID/g |

Reference: PMC9695418, “The Synthesis and Preclinical Investigation of Lactosamine-Based Radiopharmaceuticals for the Detection of Galectin-3-Expressing Melanoma Cells” (Pharmaceutics, 2022)
